The record followed here is paper PMC8354229.

Where “and” joins values, the source holds several entries; their conditions need not be identical. Identical values can stand only once.

In experiment [1] the target is HIV-1 Vpr (WT), expressed from pNL4-3unc (UniProt P12520). In words: immunoblot of virions (Vpr incorporation, Vpr/CA ratio, LI-COR quantification). The following applies: equivalent RT units of virus concentrated by ultracentrifugation through a sucrose cushion; parent: est. 100; read off a plot. On the technique in general: In western blotting, separated proteins are transferred to a membrane and probed.

The target of experiment [2] is HIV-1 Gag p6 Mutant 12 (alanine substitutions in the LXXLF motif) (HIV-1 (NL4-3-based proviral plasmid)) (UniProt P12493). In words: virion incorporation (virions pelleted through sucrose, immunoblot); virus from 293T cells transfected with pNL4-3unc proviral plasmids (Gag and Vpr from the same construct); concentrated through a 20% (w/v) sucrose cushion, 2 h, 10,000 g, 4°C; equivalent RT units on SDS-PAGE; anti-Vpr and anti-CA immunoblot; Vpr/CA ratio relative to WT virions (LI-COR).

The target in experiment [3] is HIV-1 Gag p6 Mutant 4 (FRFG to alanines) (HIV-1 (NL4-3-based proviral plasmid)) (UniProt P12493). The experiment is described as above.
For experiment [4], the target named is HIV-1 Gag p6 Mutant 11 (LXXL to alanines) (HIV-1 (NL4-3-based proviral plasmid)) (UniProt P12493). Described as above.
For experiment [5], the target named is HIV-1 Gag with WT p6, expressed from pNL4-3unc (HIV-1 (NL4-3-based proviral plasmid)) (UniProt P12493). The experiment is described as above.
Experiment [6] addresses T1, HIV-1 Vpr (WT), expressed from pNL4-3unc (HIV-1 (NL4-3-based proviral plasmid)), P12520.
T1 chain: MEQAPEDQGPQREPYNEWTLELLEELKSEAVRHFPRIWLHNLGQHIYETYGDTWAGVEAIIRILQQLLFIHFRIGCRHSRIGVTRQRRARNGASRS
Put plainly: cross-linking; virions pelleted through sucrose, 1% formaldehyde in PBS 20 min at room temperature, quenched with 250 mM Tris-HCl pH 7.5, pelleted again through sucrose, SDS-PAGE and anti-Vpr immunoblot. As to conditions: remark: other sources report otherwise.

Regarding “HIV-1 Gag with WT p6, expressed from pNL4-3unc (from UniProt P12493) E19A; E20A; T21A; T22A”, the percent of parent in experiment [1] is 52 % WT. On the same count and under the same terms, the result for “HIV-1 Gag with WT p6, expressed from pNL4-3unc (from UniProt P12493) E34A; L35A; Y36A” reads 73 % WT; that for “HIV-1 Gag with WT p6, expressed from pNL4-3unc (from UniProt P12493) I31A; D32A; K33A”, 90 % WT; that for “HIV-1 Gag with WT p6, expressed from pNL4-3unc (from UniProt P12493) K27A; Q28A; E29A; P30A”, 93 % WT.

For “HIV-1 Gag with WT p6, expressed from pNL4-3unc (from UniProt P12493) P11A; E12A; E13A; S14A”, the percent of parent in experiment [1] is 62 % WT. Consider “HIV-1 Gag with WT p6, expressed from pNL4-3unc (from UniProt P12493) P37A; L38A; S40A”, for which the percent of parent in experiment [1] came out at 62 % WT.

Take “HIV-1 Gag with WT p6, expressed from pNL4-3unc (from UniProt P12493) P49A; S50A; S51A; Q52A”: the percent of parent in experiment [1] was determined as 76 % WT. The same measure, in the same setting: the same measure for “HIV-1 Gag with WT p6, expressed from pNL4-3unc (from UniProt P12493) R4A; P5A; E6A”: 85 % WT.

As to “HIV-1 Gag with WT p6, expressed from pNL4-3unc (from UniProt P12493) T23A; P24A; S25A; Q26A”, the percent of parent in experiment [1] is 59 % WT. With “HIV-1 Vpr (WT), expressed from pNL4-3unc (from UniProt P12520 1-96) (natural protein)”, the Vpr incorporated, % of WT virions (Vpr/CA ratio) in experiment [2], in experiment [3] and in experiment [4] was < 30% each time. In the case of “HIV-1 Vpr L67A (from UniProt P12520 1-96) (natural protein)”, in experiment [5], the fold reduction of Vpr incorporation against WT Vpr was determined as 2 fold. Moreover, the fold lower Vpr packaging than the same p6 mutant with WT Vpr in experiment [3] and in experiment [4] was > 10 fold each time.

B1: HIV-1 Vpr (WT), expressed from pNL4-3unc, P12520 1-96 (natural protein)
chain: MEQAPEDQGPQREPYNEWTLELLEELKSEAVRHFPRIWLHNLGQHIYETYGDTWAGVEAIIRILQQLLFIHFRIGCRHSRIGVTRQRRARNGASRS
What is called stoichiometry N is the number of molecules, sites or subunits per partner or assembly. B1: in experiment [6], the stoichiometry N was 2 and 3.
